{"source": "patent US20240358762A1", "about": "(UNIVERSITY OF PITTSBURGH OF THE COMMONWEALTH SYSTEM OF …, published 2024)", "molecular_target": "T1, human PRTG polypeptide (human, UniProt Q2VWP7 36-952, limits assumed)", "T1 construct": "also called protogenin", "T1 sequence (looked up)": "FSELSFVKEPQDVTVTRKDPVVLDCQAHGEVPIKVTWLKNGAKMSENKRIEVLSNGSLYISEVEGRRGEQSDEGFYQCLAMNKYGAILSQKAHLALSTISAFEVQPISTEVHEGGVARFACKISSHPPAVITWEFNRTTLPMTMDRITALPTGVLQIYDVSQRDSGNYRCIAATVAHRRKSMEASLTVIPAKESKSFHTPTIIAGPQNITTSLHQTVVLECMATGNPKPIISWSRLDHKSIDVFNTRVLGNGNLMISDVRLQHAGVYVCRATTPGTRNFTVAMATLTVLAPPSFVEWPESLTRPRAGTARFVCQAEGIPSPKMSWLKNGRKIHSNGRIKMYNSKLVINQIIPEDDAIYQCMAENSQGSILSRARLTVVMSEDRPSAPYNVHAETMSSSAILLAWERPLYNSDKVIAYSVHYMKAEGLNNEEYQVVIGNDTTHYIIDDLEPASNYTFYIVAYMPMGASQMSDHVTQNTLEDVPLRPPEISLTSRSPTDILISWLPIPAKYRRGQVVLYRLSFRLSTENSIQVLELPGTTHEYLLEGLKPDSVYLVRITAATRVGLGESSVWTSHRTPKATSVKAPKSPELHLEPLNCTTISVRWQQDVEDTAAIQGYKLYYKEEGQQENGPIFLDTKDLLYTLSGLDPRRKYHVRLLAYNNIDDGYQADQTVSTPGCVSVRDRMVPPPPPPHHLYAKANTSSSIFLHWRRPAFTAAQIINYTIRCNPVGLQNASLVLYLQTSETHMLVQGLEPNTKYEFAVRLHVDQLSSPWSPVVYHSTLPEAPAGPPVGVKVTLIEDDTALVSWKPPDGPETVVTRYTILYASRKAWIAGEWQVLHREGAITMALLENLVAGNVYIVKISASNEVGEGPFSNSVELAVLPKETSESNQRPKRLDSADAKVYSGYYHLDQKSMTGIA", "assay": "ELISA and SPR (Blitz) as stated; which method gave the EC50 is not said", "experimental": "Binding affinity and specificity to a human PRTG polypeptide were tested using an ELISA and SPR (Blitz). […] Clone #1 was determined to bind to the human PRTG fibronectin type-III 1 domain; clone #2 was determined to bind to the human PRTG fibronectin type-III 3 domain; and clones #3, #4, #5, #6, #7, and #8 were determined to bind to the human PRTG fibronectin type-III 5 domain. Clone #1 binding to the human PRTG fibronectin type-III 1 domain was determined by ELISA. Clone #2 binding was based on the panning being performed using a PRTG fibronectin type-III 3 domain; and clones #3, #4, #5, #6, #7, and #8 binding was based on the panning being performed using a PRTG fibronectin type-III 5 domain.", "data": [{"binder": "VH domain Clone #8 (other, also called #8 (VH domain)) VH: EVQLVESGGGLVQPGGSLRLSCKGSGFTFSNYWMHWVRQAPGKGLEWVSAISGSGGSTYYADSVKGRFTISRDNSKNTLYLQMNSLRAEDTATYYCATLCRGDSCYSPFDPWGQGTLVTVSSS", "values": [{"measurement": "EC50", "result": 0.81, "unit": "nM"}]}, {"binder": "VH domain Clone #6 (other, also called #6 (VH domain)) VH: EVQLVESGGGLVQPGGSLRLSCAASGFTFSNYGMSWVRQAPGQRLEWIGWIDTKTGNPRYGQGFTGRFTISRDNSKNTLYLQMNSLRAEDTATYYCVSTVPNGVEYFQHWGQGTLVTVSS", "values": [{"measurement": "EC50", "result": 6.25, "unit": "nM"}]}, {"binder": "VH domain Clone #2 (other, also called #2 (VH domain)) VH: EVQLVESGGGLVQPGGSLRLSCKGSGFTFSNFAMNWVRQAPGKGLEWVSAISGSGGSTYYADSVKGRFTISRDNSKNTLYLQMNSLRAEDTALYYCARGPDYYGSGSHGWFDPWGQGTLVTVSS", "values": [{"measurement": "EC50", "result": 30, "unit": "nM"}]}, {"binder": "VH domain Clone #7 (other, also called #7 (VH domain)) VH: EVQLVESGGGLVQPGGSLRLSCAASGFTFSNAWMSWVRQAPGKGLEWIGRIYSSGSTNYNPSLKSRVTISRDNSKNTLYLQMNSLRAEDTALYYCASTYRSSSGEYFQHWGQGTLVTVSSS", "values": [{"measurement": "EC50", "result": 0.29, "unit": "nM"}]}, {"binder": "VH domain Clone #5 (other, also called #5 (VH domain)) VH: EVQLVESGGGLVQPGGSLRLSCKGSGFNFGDYAMHWVRQAPGKALEWIGYIYNTGSTKYNPSLKSLVTISRDNSKNTLYLQMNSLRAEDTATYYCVSTVTNGVEYFQHWGQGTLVTVSS", "values": [{"measurement": "EC50", "result": 1.35, "unit": "nM"}]}, {"binder": "VH domain Clone #4 (other, also called #4 (VH domain)) VH: EVQLVESGGGLVQPGGSLRLSCAASGSAFGSHWMHWVRQAPGKGLEWVSSISSGGSSIYYADSVKGRFTISRDNSKNTLYLQMNSLRAEDTAVYYCARVRRDDDSNYRPFDVWGQGTMVTVSS", "values": [{"measurement": "EC50", "result": 0.9, "unit": "nM"}]}, {"binder": "VH domain Clone #1 (other, also called #1 (VH domain)) VH: EVQLVESGGGLVQPGGSLRLSCKASGFTVSSNYMHWVRQAPGKGLEWIGGINHSGRTNYKSSLKSRVTISRDNSKNTLYLQMNSLRAEDTAVYYCARLPPSRDGYNYADYWGQGTLVTVSS", "values": [{"measurement": "EC50", "result": 2.8, "unit": "nM"}]}, {"binder": "VH domain Clone #3 (other, also called #3 (VH domain)) VH: EVQLVESGGGLVQPGGSLRLSCAASYFDFDSYEMSWVRQAPGKALEWLGRIYTSGTTNYNPSLKSRVTISRDNSKNTLYLQMNSLRAEDTATYYCAMTGPYYDSSGYYPARHAEYFQHWGQGTLVTVSS", "values": [{"measurement": "EC50", "result": 0.75, "unit": "nM"}]}]}
